Values quoted from earlier work, collected in article PMC6214620.

Tested on: Lys53
Details: ferric; His-Fe-Lys converting to a water-bound, lysine-deligated state

## Truncated hemoglobin THB1 (Chlamydomonas reinhardtii)
  pKa: ~ 6.5
